Measured values published in patent publication US9340616B2, “Methods and compositions for heptameric targeting ligands” (The University of North Carolina at Chapel Hill, priority 2011, dated 2016).

Target: T1, PSMA (Homo sapiens, UniProt Q04609)
T1 construct: the extracellular domains of EGFR, HER2, and PSMA that are immobilized on the surface of CM5 biosensor chips; purchased R&D System, Minneapolis, Minn
Experiment: BIAcore surface plasmon resonance on immobilized PSMA
Format: binding
Conditions: for binding to the PSMA receptor: PSMA monomer injected at 100 uM
Description: BIAcore 2000 (BIAcore AB, Uppsala, Sweden) was used for surface plasmon resonance (SPR) analysis. Purified extracellular domain of recombinant human EGFR ECD-Fc, HER2 ECD-Fc, and PSMA were diluted in 10 mM sodium acetate pH 5.0 and immobilized on a CM5 sensor chip (GE healthcare) by amine coupling according to the manufacturer's instruction (about 2,500 resonance unit). Various concentrations of monomeric and heptameric targeting ligands were injected onto the flow cell in an HBS-P buffer (10 mM HEPES pH7.4, 150 mM NaCl, and 0.005% surfactant P20) at a flow rate of 20 μl/min or 30 μl/min. The dissociation constants (Kd) were calculated using BIAevaluation software (BIAcore) by fitting data on one to one Langmuir binding model.
The BIAcore 2000 (BIAcore AB, Uppsala, Sweden) was used for surface plasmon resonance analysis. 1 μg of purified extracellular domain of recombinant human EGFR ECD-Fc, HER2 ECD-Fc, or PSMA (R&D System, Minneapolis, Minn.), was diluted in a buffer containing 10 mM sodium acetate pH 5.0 and immobilized on a CM5 sensor chip (GE healthcare, Piscataway, N.J.) by amine coupling according to the manufacturer's instruction (about 2,500 resonance units). Various concentrations of monomeric or heptameric ligands were injected onto the flow cell in an HBS-P buffer (10 mM HEPES pH 7.4, 150 mM NaCl, and 0.005% surfactant P20) at a flow rate of 20 μl/min. The dissociation equilibrium constant (KD), the association rate (Ka) and the dissociation rate (Kd) were calculated using the BIAevaluation software (BIAcore) by fitting the data on a one to one Langmuir binding model.

T1 sequence (Q04609 44-750 limits assumed): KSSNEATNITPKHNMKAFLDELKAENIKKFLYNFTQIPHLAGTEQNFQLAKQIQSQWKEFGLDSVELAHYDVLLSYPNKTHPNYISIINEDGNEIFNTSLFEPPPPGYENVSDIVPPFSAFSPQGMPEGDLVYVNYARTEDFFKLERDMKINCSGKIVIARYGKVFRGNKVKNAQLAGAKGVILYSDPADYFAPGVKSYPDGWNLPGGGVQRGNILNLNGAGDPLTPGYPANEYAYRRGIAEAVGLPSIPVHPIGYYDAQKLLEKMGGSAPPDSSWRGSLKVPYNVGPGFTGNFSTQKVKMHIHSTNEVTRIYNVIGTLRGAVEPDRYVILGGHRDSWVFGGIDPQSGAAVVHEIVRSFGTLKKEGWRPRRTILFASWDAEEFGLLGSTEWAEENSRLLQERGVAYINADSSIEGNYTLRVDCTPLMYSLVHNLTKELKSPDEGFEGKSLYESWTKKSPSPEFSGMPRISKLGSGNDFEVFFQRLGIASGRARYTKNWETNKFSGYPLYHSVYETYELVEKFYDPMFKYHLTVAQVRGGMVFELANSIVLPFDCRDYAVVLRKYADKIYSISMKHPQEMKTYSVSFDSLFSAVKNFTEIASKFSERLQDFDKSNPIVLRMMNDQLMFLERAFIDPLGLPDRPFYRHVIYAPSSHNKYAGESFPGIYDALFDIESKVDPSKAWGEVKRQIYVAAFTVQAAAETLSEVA

Row | Molecule | binding to the PSMA receptor | Kd (dissociation rate, one to one Langmuir model)
1 | PSMA-Heptamer: AF-Sm1 heptamerization domain fused with the 12 amino-acid PSMA-binding peptide WQPDTAHHWATL, self-assembled heptamer (protein) MWQPDTAHHWATLGPQPQPKPQPKPEPEPQPQGGMPPRPLDVLNRSLKSPVIVRLKGGREFRGTLDGYDIHMNLVLLDAEEIQNGEVVRKVGSVVIRGDTVVFVSPAPGGEHHHHHH | bind marginally | 1.09e-06 s⁻¹
2 | PSMA monomer: PSMA-binding peptide WQPDTAHHWATL on a truncated, nonfunctional Sm1 domain lacking the C-terminal 23 residues (protein) MWQPDTAHHWATLGPQPQPKPQPKPEPEPQPQGGMPPRPLDVLNRSLKSPVIVRLKGGREFRGTLDGYDIHMNLVLLDAEEIQNGEVVHHHHHH | did not bind | 
